Reference: PMC8167298, “Structural Investigations of Human A2M Identify a Hollow Native Conformation That Underlies Its Distinctive Protease-Trapping Mechanism” (Molecular & Cellular Proteomics : MCP, 2021)

What was measured:
[1] = target: the molecule itself; assay: negative stain electron microscopy; A2M at 78 μg/ml on carbon-coated copper grids, 2% w/v uranyl formate; 2D classes and 3D refinement with D2 symmetry imposed, 24 Å map
[2] = target: the molecule itself; assay: nonreducing SDS-PAGE; nonreducing SDS-PAGE on 5 to 15% gradient gels; shows disulfide-linked oligomers; DSSO-cross-linked A2M-MA defines the dimer and tetramer bands
[3] = target: the molecule itself; assay: SEC; Sephacryl S-300 HR column in HBS, samples after DSSO cross-linking

Row | Protein | stoichiometry N [1] | stoichiometry N [2] | stoichiometry N [3]
1 | Human α2-macroglobulin (A2M), native conformation, plasma-purified (natural protein, UniProt P01023 24-1474, looked up, intact thiol ester between the cysteine and glutamine of the CGEQ motif; N-glycans; intersubunit Cys278/Cys431 disulfides in each disulfide-bridged dimer, α2-macroglobulin, human, from plasma; original N-terminus at position 24; Homotetramer of 720 kDa, a dimer of disulfide-bridged dimers; In the cross-linking, SEC and native PAGE rows the protein carried DSSO cross-links; SAXS was also measured on deglycosylated A2M; also called native A2M; plasma A2M; source: purified from plasma from a healthy volunteer, never frozen) SVSGKPQYMVLVPSLLHTETTEKGCVLLSYLNETVTVSASLESVRGNRSLFTDLEAENDVLHCVAFAVPKSSSNEEVMFLTVQVKGPTQEFKKRTTVMVKNEDSLVFVQTDKSIYKPGQTVKFRVVSMDENFHPLNELIPLVYIQDPKGNRIAQWQSFQLEGGLKQFSFPLSSEPFQGSYKVVVQKKSGGRTEHPFTVEEFVLPKFEVQVTVPKIITILEEEMNVSVCGLYTYGKPVPGHVTVSICRKYSDASDCHGEDSQAFCEKFSGQLNSHGCFYQQVKTKVFQLKRKEYEMKLHTEAQIQEEGTVVELTGRQSSEITRTITKLSFVKVDSHFRQGIPFFGQVRLVDGKGVPIPNKVIFIRGNEANYYSNATTDEHGLVQFSINTTNVMGTSLTVRVNYKDRSPCYGYQWVSEEHEEAHHTAYLVFSPSKSFVHLEPMSHELPCGHTQTVQAHYILNGGTLLGLKKLSFYYLIMAKGGIVRTGTHGLLVKQEDMKGHFSISIPVKSDIAPVARLLIYAVLPTGDVIGDSAKYDVENCLANKVDLSFSPSQSLPASHAHLRVTAAPQSVCALRAVDQSVLLMKPDAELSASSVYNLLPEKDLTGFPGPLNDQDNEDCINRHNVYINGITYTPVSSTNEKDMYSFLEDMGLKAFTNSKIRKPKMCPQLQQYEMHGPEGLRVGFYESDVMGRGHARLVHVEEPHTETVRKYFPETWIWDLVVVNSAGVAEVGVTVPDTITEWKAGAFCLSEDAGLGISSTASLRAFQPFFVELTMPYSVIRGEAFTLKATVLNYLPKCIRVSVQLEASPAFLAVPVEKEQAPHCICANGRQTVSWAVTPKSLGNVNFTVSAEALESQELCGTEVPSVPEHGRKDTVIKPLLVEPEGLEKETTFNSLLCPSGGEVSEELSLKLPPNVVEESARASVSVLGDILGSAMQNTQNLLQMPYGCGEQNMVLFAPNIYVLDYLNETQQLTPEIKSKAIGYLNTGYQRQLNYKHYDGSYSTFGERYGRNQGNTWLTAFVLKTFAQARAYIFIDEAHITQALIWLSQRQKDNGCFRSSGSLLNNAIKGGVEDEVTLSAYITIALLEIPLTVTHPVVRNALFCLESAWKTAQEGDHGSHVYTKALLAYAFALAGNQDKRKEVLKSLNEEAVKKDNSVHWERPQKPKAPVGHFYEPQAPSAEVEMTSYVLLAYLTAQPAPTSEDLTSATNIVKWITKQQNAQGGFSSTQDTVVALHALSKYGAATFTRTGKAAQVTIQSSGTFSSKFQVDNNNRLLLQQVSLPELPGEYSMKVTGEGCVYLQTSLKYNILPEKEEFPFALGVQTLPQTCDEPKAHTSFQISLSVSYTGSRSASNMAIVDVKMVSGFIPLKPTVKMLERSNHVSRTEVSSNHVLIYLDKVSNQTLSLFFTVLQDVPVRDLKPAIVKVYDYYETDEFAIAEYNAPCSKDLGNA | 4 | 2 | –
2 | A2M^3K, recombinant A2M with the Arg704Lys, Arg715Lys and Arg719Lys mutations (natural protein, human, UniProt P01023 24-1474, looked up, α2-macroglobulin, human, recombinant; the three bait region arginines replaced with lysines; The protein is secreted into the culture supernatant; also called A2M^3K (R704K R715K R719K); source: HEK293 Freestyle cells, transiently transfected, purified from the supernatant by the protocol used for plasma A2M) SVSGKPQYMVLVPSLLHTETTEKGCVLLSYLNETVTVSASLESVRGNRSLFTDLEAENDVLHCVAFAVPKSSSNEEVMFLTVQVKGPTQEFKKRTTVMVKNEDSLVFVQTDKSIYKPGQTVKFRVVSMDENFHPLNELIPLVYIQDPKGNRIAQWQSFQLEGGLKQFSFPLSSEPFQGSYKVVVQKKSGGRTEHPFTVEEFVLPKFEVQVTVPKIITILEEEMNVSVCGLYTYGKPVPGHVTVSICRKYSDASDCHGEDSQAFCEKFSGQLNSHGCFYQQVKTKVFQLKRKEYEMKLHTEAQIQEEGTVVELTGRQSSEITRTITKLSFVKVDSHFRQGIPFFGQVRLVDGKGVPIPNKVIFIRGNEANYYSNATTDEHGLVQFSINTTNVMGTSLTVRVNYKDRSPCYGYQWVSEEHEEAHHTAYLVFSPSKSFVHLEPMSHELPCGHTQTVQAHYILNGGTLLGLKKLSFYYLIMAKGGIVRTGTHGLLVKQEDMKGHFSISIPVKSDIAPVARLLIYAVLPTGDVIGDSAKYDVENCLANKVDLSFSPSQSLPASHAHLRVTAAPQSVCALRAVDQSVLLMKPDAELSASSVYNLLPEKDLTGFPGPLNDQDNEDCINRHNVYINGITYTPVSSTNEKDMYSFLEDMGLKAFTNSKIRKPKMCPQLQQYEMHGPEGLKVGFYESDVMGKGHAKLVHVEEPHTETVRKYFPETWIWDLVVVNSAGVAEVGVTVPDTITEWKAGAFCLSEDAGLGISSTASLRAFQPFFVELTMPYSVIRGEAFTLKATVLNYLPKCIRVSVQLEASPAFLAVPVEKEQAPHCICANGRQTVSWAVTPKSLGNVNFTVSAEALESQELCGTEVPSVPEHGRKDTVIKPLLVEPEGLEKETTFNSLLCPSGGEVSEELSLKLPPNVVEESARASVSVLGDILGSAMQNTQNLLQMPYGCGEQNMVLFAPNIYVLDYLNETQQLTPEIKSKAIGYLNTGYQRQLNYKHYDGSYSTFGERYGRNQGNTWLTAFVLKTFAQARAYIFIDEAHITQALIWLSQRQKDNGCFRSSGSLLNNAIKGGVEDEVTLSAYITIALLEIPLTVTHPVVRNALFCLESAWKTAQEGDHGSHVYTKALLAYAFALAGNQDKRKEVLKSLNEEAVKKDNSVHWERPQKPKAPVGHFYEPQAPSAEVEMTSYVLLAYLTAQPAPTSEDLTSATNIVKWITKQQNAQGGFSSTQDTVVALHALSKYGAATFTRTGKAAQVTIQSSGTFSSKFQVDNNNRLLLQQVSLPELPGEYSMKVTGEGCVYLQTSLKYNILPEKEEFPFALGVQTLPQTCDEPKAHTSFQISLSVSYTGSRSASNMAIVDVKMVSGFIPLKPTVKMLERSNHVSRTEVSSNHVLIYLDKVSNQTLSLFFTVLQDVPVRDLKPAIVKVYDYYETDEFAIAEYNAPCSKDLGNA | – | – | 4
3 | A2M^LNK/LNK, recombinant A2M with the Thr654Cys and Thr661Cys mutations (natural protein, human, UniProt P01023 24-1474, looked up, intersubunit disulfide between Cys654 and Cys661 of opposite subunits, α2-macroglobulin, human, recombinant; two cysteines introduced in the LNK region; The protein is secreted into the culture supernatant; also called A2M^LNK/LNK (T654C T661C); source: HEK293 Freestyle cells, transiently transfected, purified from the supernatant by the protocol used for plasma A2M) SVSGKPQYMVLVPSLLHTETTEKGCVLLSYLNETVTVSASLESVRGNRSLFTDLEAENDVLHCVAFAVPKSSSNEEVMFLTVQVKGPTQEFKKRTTVMVKNEDSLVFVQTDKSIYKPGQTVKFRVVSMDENFHPLNELIPLVYIQDPKGNRIAQWQSFQLEGGLKQFSFPLSSEPFQGSYKVVVQKKSGGRTEHPFTVEEFVLPKFEVQVTVPKIITILEEEMNVSVCGLYTYGKPVPGHVTVSICRKYSDASDCHGEDSQAFCEKFSGQLNSHGCFYQQVKTKVFQLKRKEYEMKLHTEAQIQEEGTVVELTGRQSSEITRTITKLSFVKVDSHFRQGIPFFGQVRLVDGKGVPIPNKVIFIRGNEANYYSNATTDEHGLVQFSINTTNVMGTSLTVRVNYKDRSPCYGYQWVSEEHEEAHHTAYLVFSPSKSFVHLEPMSHELPCGHTQTVQAHYILNGGTLLGLKKLSFYYLIMAKGGIVRTGTHGLLVKQEDMKGHFSISIPVKSDIAPVARLLIYAVLPTGDVIGDSAKYDVENCLANKVDLSFSPSQSLPASHAHLRVTAAPQSVCALRAVDQSVLLMKPDAELSASSVYNLLPEKDLTGFPGPLNDQDNEDCINRHNVYINGICYTPVSSCNEKDMYSFLEDMGLKAFTNSKIRKPKMCPQLQQYEMHGPEGLRVGFYESDVMGRGHARLVHVEEPHTETVRKYFPETWIWDLVVVNSAGVAEVGVTVPDTITEWKAGAFCLSEDAGLGISSTASLRAFQPFFVELTMPYSVIRGEAFTLKATVLNYLPKCIRVSVQLEASPAFLAVPVEKEQAPHCICANGRQTVSWAVTPKSLGNVNFTVSAEALESQELCGTEVPSVPEHGRKDTVIKPLLVEPEGLEKETTFNSLLCPSGGEVSEELSLKLPPNVVEESARASVSVLGDILGSAMQNTQNLLQMPYGCGEQNMVLFAPNIYVLDYLNETQQLTPEIKSKAIGYLNTGYQRQLNYKHYDGSYSTFGERYGRNQGNTWLTAFVLKTFAQARAYIFIDEAHITQALIWLSQRQKDNGCFRSSGSLLNNAIKGGVEDEVTLSAYITIALLEIPLTVTHPVVRNALFCLESAWKTAQEGDHGSHVYTKALLAYAFALAGNQDKRKEVLKSLNEEAVKKDNSVHWERPQKPKAPVGHFYEPQAPSAEVEMTSYVLLAYLTAQPAPTSEDLTSATNIVKWITKQQNAQGGFSSTQDTVVALHALSKYGAATFTRTGKAAQVTIQSSGTFSSKFQVDNNNRLLLQQVSLPELPGEYSMKVTGEGCVYLQTSLKYNILPEKEEFPFALGVQTLPQTCDEPKAHTSFQISLSVSYTGSRSASNMAIVDVKMVSGFIPLKPTVKMLERSNHVSRTEVSSNHVLIYLDKVSNQTLSLFFTVLQDVPVRDLKPAIVKVYDYYETDEFAIAEYNAPCSKDLGNA | – | 4 | –
4 | Recombinant wild-type A2M (natural protein, human, UniProt P01023 24-1474, looked up, α2-macroglobulin, human, recombinant wild type; source: HEK293 Freestyle cells, transiently transfected, purified from the supernatant by the protocol used for plasma A2M) SVSGKPQYMVLVPSLLHTETTEKGCVLLSYLNETVTVSASLESVRGNRSLFTDLEAENDVLHCVAFAVPKSSSNEEVMFLTVQVKGPTQEFKKRTTVMVKNEDSLVFVQTDKSIYKPGQTVKFRVVSMDENFHPLNELIPLVYIQDPKGNRIAQWQSFQLEGGLKQFSFPLSSEPFQGSYKVVVQKKSGGRTEHPFTVEEFVLPKFEVQVTVPKIITILEEEMNVSVCGLYTYGKPVPGHVTVSICRKYSDASDCHGEDSQAFCEKFSGQLNSHGCFYQQVKTKVFQLKRKEYEMKLHTEAQIQEEGTVVELTGRQSSEITRTITKLSFVKVDSHFRQGIPFFGQVRLVDGKGVPIPNKVIFIRGNEANYYSNATTDEHGLVQFSINTTNVMGTSLTVRVNYKDRSPCYGYQWVSEEHEEAHHTAYLVFSPSKSFVHLEPMSHELPCGHTQTVQAHYILNGGTLLGLKKLSFYYLIMAKGGIVRTGTHGLLVKQEDMKGHFSISIPVKSDIAPVARLLIYAVLPTGDVIGDSAKYDVENCLANKVDLSFSPSQSLPASHAHLRVTAAPQSVCALRAVDQSVLLMKPDAELSASSVYNLLPEKDLTGFPGPLNDQDNEDCINRHNVYINGITYTPVSSTNEKDMYSFLEDMGLKAFTNSKIRKPKMCPQLQQYEMHGPEGLRVGFYESDVMGRGHARLVHVEEPHTETVRKYFPETWIWDLVVVNSAGVAEVGVTVPDTITEWKAGAFCLSEDAGLGISSTASLRAFQPFFVELTMPYSVIRGEAFTLKATVLNYLPKCIRVSVQLEASPAFLAVPVEKEQAPHCICANGRQTVSWAVTPKSLGNVNFTVSAEALESQELCGTEVPSVPEHGRKDTVIKPLLVEPEGLEKETTFNSLLCPSGGEVSEELSLKLPPNVVEESARASVSVLGDILGSAMQNTQNLLQMPYGCGEQNMVLFAPNIYVLDYLNETQQLTPEIKSKAIGYLNTGYQRQLNYKHYDGSYSTFGERYGRNQGNTWLTAFVLKTFAQARAYIFIDEAHITQALIWLSQRQKDNGCFRSSGSLLNNAIKGGVEDEVTLSAYITIALLEIPLTVTHPVVRNALFCLESAWKTAQEGDHGSHVYTKALLAYAFALAGNQDKRKEVLKSLNEEAVKKDNSVHWERPQKPKAPVGHFYEPQAPSAEVEMTSYVLLAYLTAQPAPTSEDLTSATNIVKWITKQQNAQGGFSSTQDTVVALHALSKYGAATFTRTGKAAQVTIQSSGTFSSKFQVDNNNRLLLQQVSLPELPGEYSMKVTGEGCVYLQTSLKYNILPEKEEFPFALGVQTLPQTCDEPKAHTSFQISLSVSYTGSRSASNMAIVDVKMVSGFIPLKPTVKMLERSNHVSRTEVSSNHVLIYLDKVSNQTLSLFFTVLQDVPVRDLKPAIVKVYDYYETDEFAIAEYNAPCSKDLGNA | – | 2 | –
